Results taken from patent US20250263462A1 (US Dept. of Health and Human Services, published 2025).

What was measured:
Test in all cases: cell-based or functional assay
[1] = target: T1, KRAS G12D 9-mer peptide KRAS8-16 … (SEQ ID NO: 34) presented by HLA-A11 on pulsed cells (human, UniProt A*11:01)
[2] = target: WT KRAS 9-mer peptide (SEQ ID NO: 31) presented by HLA-A11 on pulsed cells (human, UniProt A*11:01)
[3] = target: T2, WT KRAS 10-mer peptide (SEQ ID NO: 30) presented by HLA-A11 on pulsed cells (human, UniProt A*11:01)
[4] = target: HLA-A11 on COS7/A11 cells expressing the WT KRAS minigene (23-mer SEQ ID NO: 118) (human, UniProt A*11:01)
[5] = target: HLA-A11 on COS7/A11 cells expressing the KRAS G12V minigene (23-mer SEQ ID NO: 120) (human, UniProt A*11:01)
[6] = target: HLA-A11 on COS7/A11 cells expressing the KRAS G12D minigene (23-mer SEQ ID NO: 119) (human, UniProt A*11:01)
[7] = target: T1, KRAS G12D 9-mer peptide KRAS8-16 … (SEQ …); remark: listed apart in the source
[8] = target: T3, KRAS G12D 10-mer peptide … (SEQ ID NO: 2) presented by HLA-A11 on pulsed cells (human, UniProt A*11:01)
[9] = target: KRAS G12V 9-mer peptide … (SEQ ID NO: 35) presented by HLA-A11 on pulsed cells (human, UniProt A*11:01)
[10] = target: T2, WT KRAS 10-mer peptide (SEQ ID NO: 30) …; remark: listed apart in the source
[11] = target: T3, KRAS G12D 10-mer peptide … (SEQ ID NO: …); remark: listed apart in the source
[12] = target: T2, WT KRAS 10-mer peptide (SEQ ID NO: 30) …; remark: listed apart in the source

B1: TRAV4-4/DV10*01/BV12-2*01 murine anti-KRAS G12D TCR (SEQ ID NOs: 157 and 158) (TCR, V domains shown)
V domain 1: GDQVEQSPSALSLHEGTDSALRCNFTTTMRSVQWFRQNSRGSLISLFYLASGTKENGRLKSAFDSKERRYSTLHIRDAQLEDSGTYFCAADSSNTGYQNFYFGKGTSLTVIP
V domain 2: NSGVVQSPRYIIKGKGERSILKCIPISGHLSVAWYQQTQGQELKFFIQHYDKMERDKGNLPSRFSVQQFDDYHSEMNMSALELEDSAVYFCASSLTDPLDSDYTFGSGTRLLVIE
- IFN-γ, PBL + Cos7/A11 pulsed at 10^-6 M [1]: 131 pg/mL
- IFN-γ, PBL + Cos7/A11 pulsed at 10^-7 M [1]: 60 pg/mL
- IFN-γ, PBL + Cos7/A11 pulsed at 10^-8 M [1]: 47 pg/mL
- IFN-γ, PBL + Cos7/A11 pulsed at 10^-9 M [1]: 53 pg/mL
- IFN-γ, PBL + Cos7/A11 pulsed at 10^-10 M [1]: 53 pg/mL
- IFN-γ, PBL + Cos7/A11 pulsed at 10^-11 M [1]: 52 pg/mL
- IFN-γ, PBL + Cos7/A11 pulsed at 10^-12 M [1]: 58 pg/mL
- IFN-γ, PBL + Cos7/A11 pulsed at 10^-13 M [1]: 51 pg/mL
- IFN-γ, PBL + Cos7/A11 pulsed at 10^-6 M [2]: 54 pg/mL
- IFN-γ, PBL + Cos7/A11 pulsed at 10^-7 M [2]: 53 pg/mL
- IFN-γ, PBL + Cos7/A11 pulsed at 10^-8 M [2]: 59 pg/mL
- IFN-γ, PBL + Cos7/A11 pulsed at 10^-9 M [2]: 54 pg/mL
- IFN-γ, PBL + Cos7/A11 pulsed at 10^-10 M [2]: 51 pg/mL
- IFN-γ, PBL + Cos7/A11 pulsed at 10^-11 M [2]: 48 pg/mL
- IFN-γ, PBL + Cos7/A11 pulsed at 10^-12 M [2]: 52 pg/mL
- IFN-γ, PBL + Cos7/A11 pulsed at 10^-13 M [2]: 51 pg/mL
- IFN-γ, PBL + Cos7/A11 pulsed at 10^-6 M [3]: 56 pg/mL
- IFN-γ, PBL + Cos7/A11 pulsed at 10^-7 M [3]: 57 pg/mL
- IFN-γ, PBL + Cos7/A11 pulsed at 10^-8 M [3]: 51 pg/mL
- IFN-γ, PBL + Cos7/A11 pulsed at 10^-9 M [3]: 51 pg/mL
- IFN-γ, PBL + Cos7/A11 pulsed at 10^-10 M [3]: 54 pg/mL
- IFN-γ, PBL + Cos7/A11 pulsed at 10^-11 M [3]: 50 pg/mL
- IFN-γ, PBL + Cos7/A11 pulsed at 10^-12 M [3]: 44 pg/mL
- IFN-γ, PBL + Cos7/A11 pulsed at 10^-13 M [3]: 54 pg/mL

B2: TRAV19*01/TRBV13-1*02 murine anti-KRAS G12V TCR (SEQ ID NOs: 145 and 146) (TCR, V domains shown)
V domain 1: GQQVKQSSPSLTVQEGGILILNCDYENDMFDYFAWYKKYPDNSPTLLISVRSNVDKREDGRFTVFLNKSGKHFSLHITASQPEDTAVYLCAAGDSGGSNYKLTFGKGTLLTVTP
V domain 2: EAAVTQSPRNKVTVTGGNVTLSCRQTNSHNYMYWYRQDTGHGLRLIHYSYGAGNLQIGDVPDGYKATRTTQEDFFLLLELASPSQTSLYFCASASWGGYAEQFFGPGTRLTVLE
- IFN-γ, PBL + Cos7/A11 minigene transfectant [4]: 92 pg/mL
- IFN-γ, PBL + Cos7/A11 minigene transfectant [5]: 18100 pg/mL
- IFN-γ, PBL + Cos7/A11 minigene transfectant [6]: 81 pg/mL
- IFN-γ, PBL + Cos7/A11 pulsed at 10^-6 (10^× µM) [7]: 63 pg/mL
- IFN-γ, PBL + Cos7/A11 pulsed at 10^-7 (10^× µM) [7]: 57 pg/mL
- IFN-γ, PBL + Cos7/A11 pulsed at 10^-8 (10^× µM) [7]: 48 pg/mL
- IFN-γ, PBL + Cos7/A11 pulsed at 10^-9 (10^× µM) [7]: 54 pg/mL
- IFN-γ, PBL + Cos7/A11 pulsed at 10^-10 (10^× µM) [7]: 62 pg/mL
- IFN-γ, PBL + Cos7/A11 pulsed at 10^-11 (10^× µM) [7]: 52 pg/mL
- IFN-γ, PBL + Cos7/A11 pulsed at 10^-12 (10^× µM) [7]: 57 pg/mL
- IFN-γ, PBL + Cos7/A11 pulsed at 10^-13 (10^× µM) [7]: 70 pg/mL
- IFN-γ, PBL + Cos7/A11 pulsed at 10^-6 (10^× µM) [8]: 61 pg/mL
- IFN-γ, PBL + Cos7/A11 pulsed at 10^-7 (10^× µM) [8]: 50 pg/mL
- IFN-γ, PBL + Cos7/A11 pulsed at 10^-8 (10^× µM) [8]: 49 pg/mL
- IFN-γ, PBL + Cos7/A11 pulsed at 10^-9 (10^× µM) [8]: 59 pg/mL
- IFN-γ, PBL + Cos7/A11 pulsed at 10^-10 (10^× µM) [8]: 52 pg/mL
- IFN-γ, PBL + Cos7/A11 pulsed at 10^-11 (10^× µM) [8]: 64 pg/mL
- IFN-γ, PBL + Cos7/A11 pulsed at 10^-12 (10^× µM) [8]: 62 pg/mL
- IFN-γ, PBL + Cos7/A11 pulsed at 10^-13 (10^× µM) [8]: 63 pg/mL
- IFN-γ, PBL + Cos7/A11 pulsed at 10^-6 (10^× µM) [9]: 112 pg/mL
- IFN-γ, PBL + Cos7/A11 pulsed at 10^-7 (10^× µM) [9]: 70 pg/mL
- IFN-γ, PBL + Cos7/A11 pulsed at 10^-8 (10^× µM) [9]: 52 pg/mL
- IFN-γ, PBL + Cos7/A11 pulsed at 10^-9 (10^× µM) [9]: 55 pg/mL
- IFN-γ, PBL + Cos7/A11 pulsed at 10^-10 (10^× µM) [9]: 64 pg/mL
- IFN-γ, PBL + Cos7/A11 pulsed at 10^-11 (10^× µM) [9]: 62 pg/mL
- IFN-γ, PBL + Cos7/A11 pulsed at 10^-12 (10^× µM) [9]: 66 pg/mL
- IFN-γ, PBL + Cos7/A11 pulsed at 10^-13 (10^× µM) [9]: 64 pg/mL
- IFN-γ, PBL + Cos7/A11 pulsed at 10^-6 (10^× µM) [10]: 57 pg/mL
- IFN-γ, PBL + Cos7/A11 pulsed at 10^-7 (10^× µM) [10]: 56 pg/mL
- IFN-γ, PBL + Cos7/A11 pulsed at 10^-8 (10^× µM) [10]: 57 pg/mL
- IFN-γ, PBL + Cos7/A11 pulsed at 10^-9 (10^× µM) [10]: 49 pg/mL
- IFN-γ, PBL + Cos7/A11 pulsed at 10^-10 (10^× µM) [10]: 57 pg/mL
- IFN-γ, PBL + Cos7/A11 pulsed at 10^-11 (10^× µM) [10]: 65 pg/mL
- IFN-γ, PBL + Cos7/A11 pulsed at 10^-12 (10^× µM) [10]: 67 pg/mL
- IFN-γ, PBL + Cos7/A11 pulsed at 10^-13 (10^× µM) [10]: 70 pg/mL
- IFN-γ, PBL + pulsed Cos7/A11 [11]: 94 pg/mL
- IFN-γ, PBL + pulsed Cos7/A11 [12]: 90 pg/mL
